Blank lines part the entries; values can stand above or below the binder they belong to.
Key:
[1] = target: T1, 2PT-NBD1 (human CFTR NBD1, residues 387–646, S492P/A534P/I539T) (human, UniProt P13569 387-646, S492P | A534P | I539T, biotin (in the ELISA; site not stated)); test: ELISA; printed as pEC50 7.9
[2] = target: T1, 2PT-NBD1 (human CFTR NBD1, residues …); test: ELISA; printed as pEC50 5.8
[3] = target: T1, 2PT-NBD1 (human CFTR NBD1, residues …); test: ELISA; printed as pEC50 7.6
[4] = target: T1, 2PT-NBD1 (human CFTR NBD1, residues …); test: ELISA; printed as pEC50 8.7
[5] = target: T1, 2PT-NBD1 (human CFTR NBD1, residues …); test: ELISA; printed as pEC50 8.4

T1 sequence (P13569 387-646 S492P/A534P/I539T): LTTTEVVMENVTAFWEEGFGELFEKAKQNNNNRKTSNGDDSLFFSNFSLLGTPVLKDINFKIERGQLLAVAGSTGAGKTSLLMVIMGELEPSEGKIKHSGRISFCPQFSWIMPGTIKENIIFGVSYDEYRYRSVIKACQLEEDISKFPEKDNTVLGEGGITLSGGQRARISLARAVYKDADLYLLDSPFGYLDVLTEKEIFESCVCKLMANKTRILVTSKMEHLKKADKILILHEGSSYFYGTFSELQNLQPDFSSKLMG

EC50 [4]: 2 nM
B4: nanobody T27 (VHH)
VHH: QVQLQESGGGLEQPGGSLRLSCATSGVIFGINAMGWYRQAPGKQRELVATFTSGGSTNYADFVEGRFTISRDNAKNTVYLQMNGLRPEDTAVYYCHATVVVSRYGLTYDYWGQGTQVTVSS

EC50 [1]: 12.6 nM
B5: nanobody T8 (VHH)
VHH: QVQLQESGGGLVQPGGSLRLSCAASGSTSSINAMGWYRQAPGKQREPVAISSSGGDTRYAEPVKGRFTISRDNAQNKVYLQMNSLKPEDTAVYYCWLNWGRTSVNSWGQGTQVTVSS

EC50 [5]: 3.98 nM
B6: nanobody T4 (VHH)
VHH: QVQLQESGGGLVQAGGSLRLSCAASGSTFAIIAMGWYRQAPGKQRELVAVISTGDTRYADSVKGRFTISRDNAKNTVYLQMDSLRPEDTAVYYCNAAVQVRDYRNYWGQGTQVTVSS

Second part, the binder before the results:

B1: nanobody T2a (VHH)
VHH: QVQLQESGGGLVQAGGSLRLSCAASGSIFRIDAMGWYRQAPGKQRELVAHSTSGGSTDYADSVKGRFTISRDNAKNTVYLQMNSLKPEDTAVYYCNADVRTRWYASNNYWGQGTQVTVSS
EC50 [1]: 12.6 nM

B2: nanobody G3a (VHH)
VHH: QVQLQESGGGLVQAGGSLRLSCTASGRAFSWYVMGWFRQAPGKEREFVATVSGNGSRRDYADSVKGRFTISRDNAKNTVYLQMNSLKPEDTAVYYCAASSTYYYTDPEKYDYWGQGTQVTVSS
EC50 [2]: 1580 nM

B3: nanobody D12 (VHH)
VHH: QVQLQESGGGLVQAGSSLRLACAATGSIRSINNMGWYRQAPGKQRGMVAIITRVGNTDYADSVKGRFTISRDNAKNTVYLQMNSLKPEDTATYYCHAEITEQSRPFYLTDDYWGQGTQVTVSS
EC50 [3]: 25.1 nM

Source: article PMC6572788 (2019)
